Measured values as given in article PMC2376138 (2002).

Tests used:
[1] = target: T1, SC142-reactive antigen (human (endogenous in SNU16), highly glycosylated (O-glycans)); test: SPR; apparent; immobilised mAb, 1:1 Langmuir global fit
[2] = target: T1, SC142-reactive antigen; test: SPR; apparent; immobilised scFv, 1:1 Langmuir global fit

Row | koff [1] | koff [2] | Binder
1 | 0.000825 s⁻¹ |  | SC142 monoclonal antibody (antibody, V domains shown) VH: QVKLQQSGTEVVKPGASVKLSCKASGYIFTSYDIDWVRQTPEQGLEWIGWIFPGEGSTEYNEKFKGRATLSVDKSSSTAYMELTRLTSEDSAVYFCARGDYYRRYFDLWGQGTTVTVSS VL: DIELTQSPTIMSASPGERVTMTCSASSSIRYIYWYQQKPGSSPRLLIYDTSNVAPGVPFRFSGSGSGTSYSLTINRMEAEDAATYYCLEWSGYPYTFGGGTKLELK
2 |  | 0.000776 s⁻¹ | recombinant SC142 scFv (scFv, V domains shown) VH: QVKLQQSGTEVVKPGASVKLSCKASGYIFTSYDIDWVRQTPEQGLEWIGWIFPGEGSTEYNEKFKGRATLSVDKSSSTAYMELTRLTSEDSAVYFCARGDYYRRYFDLWGQGTTVTVSS VL: DIELTQSPTIMSASPGERVTMTCSASSSIRYIYWYQQKPGSSPRLLIYDTSNVAPGVPFRFSGSGSGTSYSLTINRMEAEDAATYYCLEWSGYPYTFGGGTKLELK
